Laboratory results from patent US9550817B2, “Men1 gene for diagnosis and treatment of diabetes” (THE TRUSTEES OF THE UNIVERSITY OF PENNSYLVANIA, priority 2006, dated 2017).

Target: T1, menin (Homo sapiens, UniProt O00255)
T1 construct: made in house; host or cells: E. coli
T1 sequence (O00255 1-610): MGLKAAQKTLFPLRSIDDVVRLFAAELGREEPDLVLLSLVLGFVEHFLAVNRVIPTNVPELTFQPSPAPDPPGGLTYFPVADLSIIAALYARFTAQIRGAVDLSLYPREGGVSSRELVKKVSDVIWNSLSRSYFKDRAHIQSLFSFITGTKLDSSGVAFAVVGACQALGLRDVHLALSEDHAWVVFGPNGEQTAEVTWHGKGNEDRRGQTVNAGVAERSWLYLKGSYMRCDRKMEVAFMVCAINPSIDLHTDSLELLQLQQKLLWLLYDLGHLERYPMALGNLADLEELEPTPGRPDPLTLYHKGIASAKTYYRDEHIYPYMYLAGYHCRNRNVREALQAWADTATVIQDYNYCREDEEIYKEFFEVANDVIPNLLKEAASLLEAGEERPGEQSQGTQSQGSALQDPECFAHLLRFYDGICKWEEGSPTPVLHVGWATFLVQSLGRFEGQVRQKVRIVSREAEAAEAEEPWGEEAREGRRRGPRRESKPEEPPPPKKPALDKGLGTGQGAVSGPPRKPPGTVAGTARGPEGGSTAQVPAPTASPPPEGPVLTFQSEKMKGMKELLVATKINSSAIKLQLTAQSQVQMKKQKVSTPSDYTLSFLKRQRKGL
Test: Pull-down of menin by biotinylated peptides on streptavidin-agarose beads, Western blot with anti-menin antibody
Type: binding
Conditions: menin expressed in and purified from E. coli
Experimental: Biotinylated peptides were synthesized at the Peptide synthesis facility at Yale University, and loaded to streptavidin-agraose beads (Invitrogen, Inc), and incubated with menin expressed in and purified from E. coli. After multiple washings, the beads were analyzed via Western blot analysis using an anti-menin antibody.
Biotinylated peptides were synthesized, loaded to streptavidin-agraose beads (Invitrogen Inc), and incubated with menin expressed in and purified from E. coli. After multiple washings, the beads were analyzed via Western blot analysis using an anti-menin antibody. […] Especially, the peptide designated the sequence […] (SEQ ID No. 7).

- binding of peptide to menin in vitro (FIG. 12): able to react with Men1
Sequence: MAHSCRWRFPGSGSCRWRFP (Human) [SEQ ID No. 7, short synthetic peptide from the N-terminus of MLL]
